According to patent US20230055235:

Columns and labels:
[1] = biological target: T1, PD-L1 (programmed death-ligand 1) (Homo sapiens?) (UniProt Q9NZQ7); assay: inhibition; settings: PD-1/PD-L1 binding ELISA
[2] = biological target: T1, PD-L1 (programmed death-ligand 1); assay: filter; settings: 37 C

T1 sequence (Q9NZQ7 19-238): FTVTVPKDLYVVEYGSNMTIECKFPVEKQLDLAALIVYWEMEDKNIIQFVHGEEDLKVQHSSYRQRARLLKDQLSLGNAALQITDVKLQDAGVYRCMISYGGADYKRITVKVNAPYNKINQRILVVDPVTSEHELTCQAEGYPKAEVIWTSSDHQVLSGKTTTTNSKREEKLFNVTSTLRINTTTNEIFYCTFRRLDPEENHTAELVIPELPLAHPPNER

Sequence	IC50 ([1]; Bz-dU at every n) [nM]	other results
AAGTTTTTGATTGTACCTTAGTGC [PL009]	4.6	–
ATGAAAAGTTTTTGATTGTACCTTAGTGC [PL004]	7	–
ATGAAAAGTTTTTGATTGTACCTTAGTGCACTCAACAGTG [PL019]	15.3	–
ATGCCGCACGATCGCCCTATTTTGCGAGTTTAC [PL007]	–	IC50 ([1]; Bz-dU at every n, anti-PD-L1 antibody 1.2 nM): 4.7 nM
GAGTGACCGTCTGCCTGATGAAAAGTTTTTGATTGTACCTTAGTGCACTCAACAGTGCAGCCACACCACCAGCC [PL001]	–	Kd ([2]; 5-(N-benzylcarboxamide)-2'-deoxyuridine (Bz-dU) at every n, Bmax 0.07): 1.1 nM; IC50 ([1]; 5-(N-benzylcarboxamide)-2'-deoxyuridine (Bz-dU) at every n): 6 nM; IC50 ([1]; 5-(N-benzylcarboxamide)-2'-deoxyuridine (Bz-dU) at every n, repeat experiment): 10.5 nM
GAGTGACCGTCTGCCTGCCATTTCCTGCTTGCTCTTCCTCCTTTATTTTTCACCTTTCAGCCACACCACCAGCC [PL029]	–	Kd ([2]; Bz-dU at every n, Bmax 0.10): 243 nM
GAGTGACCGTCTGCCTGTGTATGCCGCACGATCGCCCTATTTTGCGAGTTTAACTGACAGCCACACCACCAGCC [PL028]	–	Kd ([2]; Bz-dU at every n, Bmax 0.06): 1.36 nM
GAGTGACCGTCTGCCTGTGTATGCCGCACGATCGCCCTATTTTGCGAGTTTACTCACAGCCACACCACCAGCC [PL002]	31.3	Kd ([2]; Bz-dU at every n, Bmax 0.05, 40 mM HEPES, 102 mM NaCl, 5 mM KCl): 0.18 nM
GAGTGACCGTCTGCCTGTTAAGCGGCTAAGTTTTTGATTGTACCTTAGTGCCCTTACCAGCCACACCACCAGCC [PL010]	–	Kd ([2]; Bz-dU at every n, Bmax 0.06): 0.93 nM
GCCTGATGAAAAGTTTTTGATTGTACCTTAGTGC [PL003]	6.3	–
GCCTGATGAAAAGTTTTTGATTGTACCTTAGTGCACTCAACAGTGC [PL017]	4	–
GCCTGATGAAAAGTTTTTGATTGTACCTTAGTGCACTCAACAGTGCAGCC [PL016]	3.3	–
GCCTGTGTATGCCGCACGATCGCCCTATTTTGCGAGTTTACTCACAGCC [PL005]	12.6	–
TGTATGCCGCACGATCGCCCTATTTTGCGAGTTTACTCA [PL006]	9.6	–
